Assay results: US20240358755A1 (IMMATICS BIOTECHNOLOGIES, published 2024)

B1: RIVTYIVAK (peptide)
peptide: RIVTYIVAK
B2: MLSAQFILK (peptide)
peptide: MLSAQFILK
B3: TTAAVYILK (peptide)
peptide: TTAAVYILK
B4: KVGAVVHLK (peptide)
peptide: KVGAVVHLK
B5: TTLENLPQK (peptide)
peptide: TTLENLPQK
B6: RVIEVVMNSK (peptide)
peptide: RVIEVVMNSK
B7: MVNWSLTNK (peptide)
peptide: MVNWSLTNK
B8: AVVSHFILY (peptide)
peptide: AVVSHFILY
B9: RILEVVRQPK (peptide)
peptide: RILEVVRQPK
B10: GSCSFALSR (peptide)
peptide: GSCSFALSR
B11: SLFPYFLNK (peptide)
peptide: SLFPYFLNK
B12: LIAGLIFLK (peptide)
peptide: LIAGLIFLK
B13: ATLQAVTLYKK (peptide)
peptide: ATLQAVTLYKK
B14: AILAPPAILK (peptide)
peptide: AILAPPAILK
B15: ATNSFLLIK (peptide)
peptide: ATNSFLLIK
B16: VIYNQTLMK (peptide)
peptide: VIYNQTLMK
B17: AVFLGNPSNQK (peptide)
peptide: AVFLGNPSNQK
B18: GSLQTLPPK (peptide)
peptide: GSLQTLPPK
B19: GVCSTLTIK (peptide)
peptide: GVCSTLTIK
B20: SVFSLVHLFDK (peptide)
peptide: SVFSLVHLFDK
B21: GTVFVLLSK (peptide)
peptide: GTVFVLLSK
B22: LIYIPTNSIYK (peptide)
peptide: LIYIPTNSIYK
B23: ILAPPAILK (peptide)
peptide: ILAPPAILK
B24: KTIDLVIVR (peptide)
peptide: KTIDLVIVR
B25: KLIAGLIFLK (peptide)
peptide: KLIAGLIFLK
B26: RLYSGSSFLY (peptide)
peptide: RLYSGSSFLY
B27: SLATAISAK (peptide)
peptide: SLATAISAK
B28: LLFKGLMWK (peptide)
peptide: LLFKGLMWK
B29: LALLGAPPPK (peptide)
peptide: LALLGAPPPK
B30: GTFIAPVMK (peptide)
peptide: GTFIAPVMK

Target: T1, HLA-A*03:01 (human)
T1 construct: Peptide-receptive MHC class I monomer in the UV-ligand exchange assay
Assay: UV peptide exchange, anti-b2m ELISA; exchange yield grade
Description: Candidate peptides for T cell based therapies according to the present invention were further tested for their MHC binding capacity (affinity). The individual peptide-MHC complexes were produced by UV-ligand exchange, where a UV-sensitive peptide is cleaved upon UV-irradiation and exchanged with the peptide of interest as analyzed. Only peptide candidates that can effectively bind and stabilize the peptide-receptive MHC molecules prevent dissociation of the MHC complexes. To determine the yield of the exchange reaction, an ELISA was performed based on the detection of the light chain (β2m) of stabilized MHC complexes. The assay was performed as generally described in Rodenko et al. (Rodenko et al., 2006).
96 well MAXISorp plates (NUNC) were coated over night with 2 μg/ml streptavidin in PBS at room temperature, washed 4× and blocked for 1 h at 37° C. in 2% BSA containing blocking buffer. […] Peptide-MHC monomers of the UV-exchange reaction were diluted 100-fold in blocking buffer. Samples were incubated for 1 h at 37° C., washed four times, incubated with 2 μg/ml HRP conjugated anti-β2m for 1 h at 37° C., washed again and detected with TMB solution that is stopped with […]. Absorption was measured at 450 nm.

| Binder | peptide exchange yield |
| --- | --- |
| B1 | 50 to 75% |
| B2 | ≥ 75% |
| B3 | 50 to 75% |
| B4 | 50 to 75% |
| B5 | 50 to 75% |
| B6 | ≥ 75% |
| B7 | ≥ 75% |
| B8 | 50 to 75% |
| B9 | ≥ 75% |
| B10 | ≥ 75% |
| B11 | ≥ 75% |
| B12 | 50 to 75% |
| B13 | ≥ 75% |
| B14 | ≥ 75% |
| B15 | ≥ 75% |
| B16 | ≥ 75% |
| B17 | ≥ 75% |
| B18 | 50 to 75% |
| B19 | ≥ 75% |
| B20 | ≥ 75% |
| B21 | 20 to 50% |
| B22 | ≥ 75% |
| B23 | ≥ 75% |
| B24 | ≥ 75% |
| B25 | 50 to 75% |
| B26 | ≥ 75% |
| B27 | 50 to 75% |
| B28 | ≥ 75% |
| B29 | 20 to 50% |
| B30 | ≥ 75% |
